Data reported in the supplement of paper PMC9112550, “Optimization of the antimicrobial peptide Bac7 by deep mutational scanning” (BMC Biology, 2022).

These sequences were tested on Escherichia coli TOP10 (assay: shrunken log2 fold change of peptide-encoding DNA abundance (4.5 h post-induction vs induction); higher = less antimicrobial activity (less host growth inhibition)). Settings: time post-induction: 4.5 h; library: site-saturation at positions 5, 18, 19, 20.
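Further: peptides expressed intracellularly from a pBAD plasmid library in pooled LB shake-flask culture, induced with 0.3% L-arabinose, DNA abundance read by NGS, three biological replicates, DESeq2 with apeglm shrinkage.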

Sequence	shrunken log2 fold change
RRIRWRPPRLPRPRPRPHMKPRP	-0.204
RRIRWRPPRLPRPRPRPHMMPRP	-0.349
RRIRWRPPRLPRPRPRPHPSPRP	0.452
RRIRWRPPRLPRPRPRPHPTPRP	0.115
RRIRWRPPRLPRPRPRPHQKPRP	0.0146
RRIRWRPPRLPRPRPRPHQTPRP	0.0649
RRIRWRPPRLPRPRPRPHQYPRP	-0.29
RRIRWRPPRLPRPRPRPHRMPRP	-0.203
RRIRWRPPRLPRPRPRPHRPPRP	-0.135
RRIRWRPPRLPRPRPRPHSAPRP	-0.0726
RRIRWRPPRLPRPRPRPHTHPRP	-0.268
RRIRWRPPRLPRPRPRPHVLPRP	-0.096
RRIRWRPPRLPRPRPRPHVSPRP	-0.0109
RRIRWRPPRLPRPRPRPHWAPRP	-0.102
RRIRWRPPRLPRPRPRPHYNPRP	-0.772
RRIRWRPPRLPRPRPRPHYPPRP	-0.225
RRIRWRPPRLPRPRPRPHYQPRP	-0.00398
RRIRWRPPRLPRPRPRPIAFPRP	0.171
RRIRWRPPRLPRPRPRPIARPRP	-0.00663
RRIRWRPPRLPRPRPRPICFPRP	0.135
RRIRWRPPRLPRPRPRPIDGPRP	0.19
RRIRWRPPRLPRPRPRPIDQPRP	0.105
RRIRWRPPRLPRPRPRPIEYPRP	-0.224
RRIRWRPPRLPRPRPRPIGMPRP	-0.131
RRIRWRPPRLPRPRPRPIIKPRP	-0.312

Sequence	shrunken log2 fold change
RRIRWRPPRLPRPRPRPIIQPRP	-0.151
RRIRWRPPRLPRPRPRPIKLPRP	-0.216
RRIRWRPPRLPRPRPRPIKMPRP	0.212
RRIRWRPPRLPRPRPRPIKSPRP	0.0589
RRIRWRPPRLPRPRPRPILAPRP	0.364
RRIRWRPPRLPRPRPRPIMSPRP	-0.161
RRIRWRPPRLPRPRPRPIMYPRP	-0.0994
RRIRWRPPRLPRPRPRPINRPRP	-0.328
RRIRWRPPRLPRPRPRPIPSPRP	0.0317
RRIRWRPPRLPRPRPRPIRNPRP	-0.334
RRIRWRPPRLPRPRPRPIRPPRP	-0.116
RRIRWRPPRLPRPRPRPISWPRP	0.0165
RRIRWRPPRLPRPRPRPITTPRP	0.0992
RRIRWRPPRLPRPRPRPIVTPRP	0.0938
RRIRWRPPRLPRPRPRPIWCPRP	0.151
RRIRWRPPRLPRPRPRPIWMPRP	-0.000467
RRIRWRPPRLPRPRPRPIYIPRP	-0.889
RRIRWRPPRLPRPRPRPIYQPRP	-0.288
RRIRWRPPRLPRPRPRPKCDPRP	0.033
RRIRWRPPRLPRPRPRPKCQPRP	0.136
RRIRWRPPRLPRPRPRPKEAPRP	0.111
RRIRWRPPRLPRPRPRPKEHPRP	0.126
RRIRWRPPRLPRPRPRPKEYPRP	0.02
RRIRWRPPRLPRPRPRPKGWPRP	0.845
RRIRWRPPRLPRPRPRPKHYPRP	0.473

Sequence	shrunken log2 fold change
RRIRWRPPRLPRPRPRPKIGPRP	-0.0273
RRIRWRPPRLPRPRPRPKILPRP	-0.0469
RRIRWRPPRLPRPRPRPKKPPRP	0.558
RRIRWRPPRLPRPRPRPKLKPRP	0.507
RRIRWRPPRLPRPRPRPKLSPRP	-0.0389
RRIRWRPPRLPRPRPRPKNHPRP	-0.248
RRIRWRPPRLPRPRPRPKVRPRP	-0.00879
RRIRWRPPRLPRPRPRPKWCPRP	-0.0668
RRIRWRPPRLPRPRPRPKYFPRP	-0.302
RRIRWRPPRLPRPRPRPLAAPRP	0.994
RRIRWRPPRLPRPRPRPLCHPRP	-0.0785
RRIRWRPPRLPRPRPRPLDHPRP	0.165
RRIRWRPPRLPRPRPRPLETPRP	-0.0608
RRIRWRPPRLPRPRPRPLFAPRP	0.579
RRIRWRPPRLPRPRPRPLFIPRP	-0.353
RRIRWRPPRLPRPRPRPLGAPRP	0.483
RRIRWRPPRLPRPRPRPLGGPRP	0.253
RRIRWRPPRLPRPRPRPLGIPRP	-0.242
RRIRWRPPRLPRPRPRPLGSPRP	-0.0308
RRIRWRPPRLPRPRPRPLHPPRP	0.597
RRIRWRPPRLPRPRPRPLHTPRP	0.0467
RRIRWRPPRLPRPRPRPLIGPRP	0.0414
RRIRWRPPRLPRPRPRPLIWPRP	0.515
RRIRWRPPRLPRPRPRPLKNPRP	0.245
RRIRWRPPRLPRPRPRPLLGPRP	0.875

Sequence	shrunken log2 fold change
RRIRWRPPRLPRPRPRPLLVPRP	0.172
RRIRWRPPRLPRPRPRPLMAPRP	0.247
RRIRWRPPRLPRPRPRPLPEPRP	0.265
RRIRWRPPRLPRPRPRPLPVPRP	-0.0992
RRIRWRPPRLPRPRPRPLQEPRP	0.36
RRIRWRPPRLPRPRPRPLQQPRP	0.115
RRIRWRPPRLPRPRPRPLRNPRP	0.847
RRIRWRPPRLPRPRPRPLSQPRP	0.0157
RRIRWRPPRLPRPRPRPLVLPRP	0.0697
RRIRWRPPRLPRPRPRPLYVPRP	-0.836
RRIRWRPPRLPRPRPRPMCPPRP	-0.232
RRIRWRPPRLPRPRPRPMCVPRP	0.0501
RRIRWRPPRLPRPRPRPMEHPRP	0.107
RRIRWRPPRLPRPRPRPMGWPRP	0.299
RRIRWRPPRLPRPRPRPMITPRP	0.0975
RRIRWRPPRLPRPRPRPMKCPRP	-0.0018
RRIRWRPPRLPRPRPRPMKEPRP	-0.23
RRIRWRPPRLPRPRPRPMKGPRP	-0.363
RRIRWRPPRLPRPRPRPMKHPRP	-0.0254
RRIRWRPPRLPRPRPRPMLGPRP	0.464
RRIRWRPPRLPRPRPRPMLVPRP	0.288
RRIRWRPPRLPRPRPRPMPHPRP	0.323
RRIRWRPPRLPRPRPRPMQTPRP	1
RRIRWRPPRLPRPRPRPMRDPRP	0.814
RRIRWRPPRLPRPRPRPMRHPRP	0.228

Sequence	shrunken log2 fold change
RRIRWRPPRLPRPRPRPMSHPRP	-0.132
RRIRWRPPRLPRPRPRPMSNPRP	0.0465
RRIRWRPPRLPRPRPRPMTAPRP	0.473
RRIRWRPPRLPRPRPRPMTFPRP	-0.108
RRIRWRPPRLPRPRPRPMVGPRP	0.171
RRIRWRPPRLPRPRPRPMWQPRP	0.016
RRIRWRPPRLPRPRPRPNCIPRP	-0.0807
RRIRWRPPRLPRPRPRPNCKPRP	-0.0223
RRIRWRPPRLPRPRPRPNCNPRP	-0.101
RRIRWRPPRLPRPRPRPNCYPRP	-0.0773
RRIRWRPPRLPRPRPRPNDDPRP	0.0584
RRIRWRPPRLPRPRPRPNFGPRP	0.174
RRIRWRPPRLPRPRPRPNGYPRP	0.186
RRIRWRPPRLPRPRPRPNHMPRP	-0.227
RRIRWRPPRLPRPRPRPNIIPRP	-0.486
RRIRWRPPRLPRPRPRPNILPRP	-0.402
RRIRWRPPRLPRPRPRPNINPRP	-0.429
RRIRWRPPRLPRPRPRPNKDPRP	-0.393
RRIRWRPPRLPRPRPRPNKNPRP	-0.0787
RRIRWRPPRLPRPRPRPNLEPRP	0.322
RRIRWRPPRLPRPRPRPNLLPRP	0.0966
RRIRWRPPRLPRPRPRPNLNPRP	-0.401
RRIRWRPPRLPRPRPRPNLYPRP	-0.169
RRIRWRPPRLPRPRPRPNMMPRP	0.00802
RRIRWRPPRLPRPRPRPNMNPRP	-0.345

Sequence	shrunken log2 fold change
RRIRWRPPRLPRPRPRPNNGPRP	-0.165
RRIRWRPPRLPRPRPRPNNHPRP	-0.588
RRIRWRPPRLPRPRPRPNNLPRP	-0.513
RRIRWRPPRLPRPRPRPNPCPRP	-0.0647
RRIRWRPPRLPRPRPRPNPEPRP	-0.0123
RRIRWRPPRLPRPRPRPNPIPRP	-0.149
RRIRWRPPRLPRPRPRPNPQPRP	-0.0303
RRIRWRPPRLPRPRPRPNQNPRP	-0.221
RRIRWRPPRLPRPRPRPNQPPRP	0.198
RRIRWRPPRLPRPRPRPNRNPRP	-0.602
RRIRWRPPRLPRPRPRPNSCPRP	0.0578
RRIRWRPPRLPRPRPRPNSTPRP	-0.326
RRIRWRPPRLPRPRPRPNVDPRP	-0.0535
RRIRWRPPRLPRPRPRPNVWPRP	-0.308
RRIRWRPPRLPRPRPRPNVYPRP	-0.234
RRIRWRPPRLPRPRPRPNWFPRP	0.156
RRIRWRPPRLPRPRPRPPAKPRP	0.56
RRIRWRPPRLPRPRPRPPASPRP	0.319
RRIRWRPPRLPRPRPRPPCDPRP	0.255
RRIRWRPPRLPRPRPRPPCGPRP	0.255
RRIRWRPPRLPRPRPRPPCPPRP	0.138
RRIRWRPPRLPRPRPRPPCYPRP	-0.436
RRIRWRPPRLPRPRPRPPDMPRP	0.0014
RRIRWRPPRLPRPRPRPPGCPRP	0.975
RRIRWRPPRLPRPRPRPPGLPRP	0.601
